{"source": "paper doi:10.1101/2025.09.11.675134", "about": "“Biodistribution-Driven Discovery Identifies a Glycosidase-Cleavable Linker to Reprogram Radiotheranostics” (bioRxiv, 2025)", "key": {"[1]": {"experiment": "Ex vivo biodistribution of 225Ac-labeled variants in AR42J tumor-bearing mice", "settings": "athymic nu/nu, mouse, total radioactivity; for tissue uptake at 24 h: 24 h post-injection", "protocol": "Prior to conducting targeted alpha-particle therapy studies using three ^225Ac-labeled variants (Fig. S17) in AR42J xenograft-bearing mice, we first assessed their in vivo pharmacokinetics through ex vivo biodistribution studies at 24 h post-injection (Fig. 5A; Tables S4). […]\nFor studies involving three variants (DOTA -TATE, DOTA-MVK(ε)-TATE, and DOTA-β-Gal-TATE), AR42J cells (5 × 10^6 cells per mouse) were subcutaneously inoculated into the right shoulder of the mice. Tumors were allowed to grow for 3 weeks, reaching a volume of 100 –200 mm³ before being used in subsequent experiments. […]\nAll samples […]\nwere weighed and counted on a gamma counter (2480 Wizard 3, Perkin Elmer Inc., Waltham, MA, USA). Results are presented as percentage of injected activity per gram (%IA/g) and mean values ± standard deviations. […]\nPrior to conducting alpha particle therapy, biodistribution studies with 225Ac-labeled DOTA - TATE variants (117 – 163 kBq, 1 μg) were performed at 24 hours and 4 days post -injection in athymic nu/nu mice bearing AR42J tumors (n = 4 – 5). Mice were euthanized by CO 2 asphyxiation, and 10 tissues, including tumors, were collected. All samples were weighed and counted on a gamma counter after equilibration for 12 hours. Results are presented as %IA/g and mean values ± standard deviations."}, "AR42J xenografts": {"test_system": "AR42J xenografts", "experiment": "Dosimetry estimates of 225Ac-labeled variants from biodistribution data", "assay_type": "in vivo, athymic nu/nu mice", "settings": "mouse, in vivo", "source_text": "To evaluate the organ-level radiation absorbed dose resulting from different DOTA-TATE derivatives, we calculated the total effective dose per unit of injected activity (Eff Dose/IA, mSv/MBq) for ^225Ac-labeled variants based on biodistribution data in AR42J xenograft-bearing mice (Tables S5).\nEstimated absorbed doses for individual organs for ^225Ac- and ^86Y-labeled DOTA-TATE variants were derived from residence times calculated using %IA/g data from biodistribution studies. The time–activity curves incorporated data from both radionuclides to provide complete coverage of early and late time points. Details of the dosimetry methodology, including time–activity curve construction, integration approach, decay assumptions, and conversion to effective dose, are provided in the Supplementary Information.\nDosimetry: The dosimetry was calculated by measuring the residence time per gram for each organ using the percent injected activity per gram (%IA/g) data collected for the biodistribution study. Because two biodistribution data sample groups were collected, one for the 86Y and the other for the 225Ac variant of the three DOTA-TATE variants (DOTA-TATE, DOTA-MVK(ε)- TATE, and DOTA-β-Gal-TATE) the %IA/g time activity curves (TAC) of the 86Y variant were merged with the 225Ac TACs. This was possible because of the difference in half lives between 86Y and 225Ac being 14.74 and 237.8 hours respectively setting the measurement time points to be 1, 4 and 24 hours for the 86Y ligands and 24, 96 hours for 225Ac. The full time activity curve is thus made up of the 1 and 4 hour time points of the 86Y %IA/g data points, an average of the common 24 hour time point of the 86Y and 225Ac %IA/g data points and the last 96 hour %IA/g time point of the 225Ac samples. The full 4 time points of 1, 4, 24, and 96 hours making up the […]\nfrom which the residence times were calculated.\nThe integration of the TAC was performed using trapezoidal interpolation between time points.\nThe first time point assumed constant activity and a decay curve with the half life of the radioisotope was used to estimate activity beyond 96 hours. The average %IA/g was used for each tissue sample for each time point and the resulting standard deviation of the average was then used as the error estimate per time point to propagate through the residence time calculation.\nUsing the residence time for each TAC, the dose was calculated by looking up the dose per decay for each alpha, beta (positron and electron from nuclear beta decay) and electron emission listed in the nuclear data sheets provided by the Brookhaven National Laboratory National Nuclear Data Center. Since the 225Ac decays via a complicated decay chain, it is assumed that the dose from the daughters remains in the tissue assuming no biological dissemination once the 225Ac decays breaking the bonds of the DOTA-TATE ligand. The following mean dose per decay were used. For 225Ac, 27.58MeV/Bq-s for alpha emissions, 1.33MeV/Bq-s for beta plus electron emissions. For 86Y, 0.219 MeV/Bq-s for beta and electron emissions. Gamma emissions were ignored because of the small size of the tissue samples have small gamma absorption effects which would contribute negligibly to the dose calculation. Furthermore, dosimetry estimate […]\ninter organ activity can be calculated(62).\nTo estimate the effective dose in mSv/MBq, a radiological factor of 5 was used to multiply the dose calculated from the alpha ionizations while a factor of 1 was used for the beta and electron ionizations to convert from mGy/MBq to mSv/MBq (63, 64)."}, "[2]": {"experiment": "Histopathology (H&E) after two-cycle therapy", "assay_type": "in vivo, athymic nu/nu mice", "settings": "mouse, in vivo", "protocol": "To further assess tissue-level toxicity at the conclusion of the two-cycle therapy study, kidneys, livers, spleens, and tumors from representative mice were collected and evaluated histologically using hematoxylin and eosin (H&E) staining. Microscopic pathology was assessed and recorded in the MHL Pathology Database (Zaphod) according to a standardized five-point grading scale (normal, minimal, mild, moderate, marked). Terminology and criteria for pathological findings were consistent with the INHAND (International Harmonization of Nomenclature and Diagnostic Criteria) guidelines developed by the Society of Toxicologic Pathology.\nAt the conclusion of the two-cycle therapy study, kidneys, livers, spleens, and tumors from representative mice were collected and processed for histological evaluation using hematoxylin and eosin (H&E) staining. Microscopic pathology was assessed and recorded in the MHL Pathology Database (Zaphod) using a standardized five-point ordinal grading system (normal, minimal, mild, moderate, marked). Terminology and diagnostic criteria were consistent with the International Harmonization of Nomenclature and Diagnostic Criteria (INHAND) guidelines established by the Society of Toxicologic Pathology (https://www.toxpath.org/inhand.asp)([57])."}}, "note": "Where two headings read alike, the source gives them in different places.", "data": [{"smiles": "C[C@@H](O)[C@H](NC(=O)[C@@H]1CSSC[C@H](NC(=O)[C@@H](Cc2ccccc2)NC(=O)CN2CCN(CC(=O)O)CCN(CC(=O)O)CCN(CC(=O)O)CC2)C(=O)N[C@@H](Cc2ccc(O)cc2)C(=O)N[C@H](Cc2c[nH]c3ccccc23)C(=O)N[C@@H](CCCCN)C(=O)N[C@@H]([C@@H](C)O)C(=O)N1)C(=O)O", "note": "[^225Ac-DOTA-TATE, metal not drawn, reference compound]", "values": [{"measurement": "tissue uptake at 24 h", "setting": "[1]; iv, 1 ug, 225Ac-labeled, AR42J tumor-bearing mice, ex vivo, mean (± SD), n = 4–5, read-out: Kidney uptake", "result": "4.19 ± 0.28", "unit": "%ID/g"}, {"measurement": "tissue uptake at 24 h", "setting": "[1]; iv, 1 ug, 225Ac-labeled, AR42J tumor-bearing mice, ex vivo, mean (± SD), n = 4–5, read-out: Liver uptake", "result": "0.29 ± 0.02", "unit": "%ID/g"}, {"measurement": "tissue uptake at 24 h", "setting": "[1]; iv, 1 ug, 225Ac-labeled, AR42J tumor-bearing mice, ex vivo, mean (± SD), n = 4–5, read-out: Tumor uptake", "result": "3.4 ± 0.34", "unit": "%ID/g"}, {"measurement": "tissue uptake at 24 h", "setting": "[1]; iv, 1 ug, 225Ac-labeled, AR42J tumor-bearing mice, ex vivo, mean, n = 4–5, read-out: Femur uptake", "result": 0.2, "unit": "%ID/g"}, {"measurement": "tissue uptake at 24 h", "setting": "[1]; iv, 1 ug, 225Ac-labeled, AR42J tumor-bearing mice, ex vivo, mean, n = 4–5, read-out: Intestine uptake", "result": 0.09, "unit": "%ID/g"}, {"measurement": "tissue uptake at 24 h", "setting": "[1]; iv, 1 ug, 225Ac-labeled, AR42J tumor-bearing mice, ex vivo, mean, n = 4–5, read-out: Spleen uptake", "result": 0.16, "unit": "%ID/g"}, {"measurement": "tissue uptake at 24 h", "setting": "[1]; iv, 1 ug, 225Ac-labeled, AR42J tumor-bearing mice, i.v. 1 μg (117–163 kBq), ex vivo gamma counting, mean, n = 4–5, read-out: Blood uptake", "result": 0.03, "unit": "%ID/g"}, {"measurement": "tissue uptake at 96 h", "setting": "[1]; iv, 1 ug, 225Ac-labeled, AR42J tumor-bearing mice, 4 days post-injection, ex vivo, mean, n = 4–5, read-out: Blood uptake", "result": 0.04, "unit": "%ID/g"}, {"measurement": "tissue uptake at 96 h", "setting": "[1]; iv, 1 ug, 225Ac-labeled, AR42J tumor-bearing mice, 4 days post-injection, ex vivo, mean, n = 4–5, read-out: Femur uptake", "result": 0.41, "unit": "%ID/g"}, {"measurement": "tissue uptake at 96 h", "setting": "[1]; iv, 1 ug, 225Ac-labeled, AR42J tumor-bearing mice, 4 days post-injection, ex vivo, mean, n = 4–5, read-out: Intestine uptake", "result": 0.1, "unit": "%ID/g"}, {"measurement": "tissue uptake at 96 h", "setting": "[1]; iv, 1 ug, 225Ac-labeled, AR42J tumor-bearing mice, 4 days post-injection, ex vivo, mean, n = 4–5, read-out: Kidney uptake", "result": 1.02, "unit": "%ID/g"}, {"measurement": "tissue uptake at 96 h", "setting": "[1]; iv, 1 ug, 225Ac-labeled, AR42J tumor-bearing mice, 4 days post-injection, ex vivo, mean, n = 4–5, read-out: Liver uptake", "result": 0.65, "unit": "%ID/g"}, {"measurement": "tissue uptake at 96 h", "setting": "[1]; iv, 1 ug, 225Ac-labeled, AR42J tumor-bearing mice, 4 days post-injection, ex vivo, mean, n = 4–5, read-out: Muscle uptake", "result": 0.16, "unit": "%ID/g"}, {"measurement": "tissue uptake at 96 h", "setting": "[1]; iv, 1 ug, 225Ac-labeled, AR42J tumor-bearing mice, 4 days post-injection, ex vivo, mean, n = 4–5, read-out: Spleen uptake", "result": 0.27, "unit": "%ID/g"}, {"measurement": "tissue uptake at 96 h", "setting": "[1]", "result": "1.14 ± 0.37", "unit": "%ID/g"}, {"measurement": "tissue uptake at 24 h", "setting": "[1]; 225Ac-labeled, AR42J tumor-bearing mice, ex vivo, mean, n = 4–5, read-out: Heart uptake", "result": 0.06, "unit": "%ID/g"}, {"measurement": "tissue uptake at 24 h", "setting": "[1]; 225Ac-labeled, AR42J tumor-bearing mice, ex vivo, mean, n = 4–5, read-out: Lung uptake", "result": 0.14, "unit": "%ID/g"}, {"measurement": "tissue uptake at 24 h", "setting": "[1]; 225Ac-labeled, AR42J tumor-bearing mice, ex vivo, mean, n = 4–5, read-out: Muscle uptake", "result": 0.1, "unit": "%ID/g"}, {"measurement": "tissue uptake at 96 h", "setting": "[1]; 225Ac-labeled, AR42J tumor-bearing mice, 4 days post-injection, ex vivo, mean, n = 4–5, read-out: Heart uptake", "result": 0.14, "unit": "%ID/g"}, {"measurement": "tissue uptake at 96 h", "setting": "[1]; 225Ac-labeled, AR42J tumor-bearing mice, 4 days post-injection, ex vivo, mean, n = 4–5, read-out: Lung uptake", "result": 0.16, "unit": "%ID/g"}, {"measurement": "Absorbed dose to kidney", "setting": "AR42J xenografts", "result": 16.2, "unit": "Gy"}, {"measurement": "Absorbed dose to tumor", "setting": "AR42J xenografts", "result": 13.2, "unit": "Gy"}, {"measurement": "Total effective dose per injected activity, Blood", "setting": "AR42J xenografts", "result": "4.00E+03", "unit": "mSv/MBq"}, {"measurement": "Total effective dose per injected activity, Femur", "setting": "AR42J xenografts", "result": "5.86E+04", "unit": "mSv/MBq"}, {"measurement": "Total effective dose per injected activity, Heart", "setting": "AR42J xenografts", "result": "1.42E+04", "unit": "mSv/MBq"}, {"measurement": "Total effective dose per injected activity, Intestine", "setting": "AR42J xenografts", "result": "3.04E+04", "unit": "mSv/MBq"}, {"measurement": "Total effective dose per injected activity, Kidney", "setting": "AR42J xenografts", "result": "5.27 × 10^5 mSv/MBq"}, {"measurement": "Total effective dose per injected activity, Liver", "setting": "AR42J xenografts", "result": "6.47E+04", "unit": "mSv/MBq"}, {"measurement": "Total effective dose per injected activity, Lung", "setting": "AR42J xenografts", "result": "3.85E+04", "unit": "mSv/MBq"}, {"measurement": "Total effective dose per injected activity, Muscle", "setting": "AR42J xenografts", "result": "9.33E+03", "unit": "mSv/MBq"}, {"measurement": "Total effective dose per injected activity, Spleen", "setting": "AR42J xenografts", "result": "3.41E+04", "unit": "mSv/MBq"}, {"measurement": "Total effective dose per injected activity, Tumor", "setting": "AR42J xenografts", "result": "4.30 × 10^5 mSv/MBq"}, {"measurement": "Glomerulopathy, percentage of mice with grade 0", "setting": "[2]", "result": 17, "unit": "%"}, {"measurement": "Glomerulopathy, percentage of mice with grade 1+", "setting": "[2]", "result": 33, "unit": "%"}, {"measurement": "Glomerulopathy, percentage of mice with grade 2+", "setting": "[2]", "result": 17, "unit": "%"}, {"measurement": "Glomerulopathy, percentage of mice with grade 3+", "setting": "[2]", "result": 33, "unit": "%"}, {"measurement": "Mice with mild, focal hepatocyte injury", "setting": "[2]", "result": "1 of 6"}, {"measurement": "Tubular damage, percentage of mice with grade 2+", "setting": "[2]", "result": 50, "unit": "%"}, {"measurement": "Tubular damage, percentage of mice with grade 3+", "setting": "[2]", "result": 33, "unit": "%"}, {"measurement": "Tubular damage, percentage of mice with grade 4+", "setting": "[2]", "result": 17, "unit": "%"}]}]}
